In publication PMC11488661 (Science immunology, 2024):
Positions count from the first letter of the chain named.

B1: g5-D78-10_CLK19 (antibody, V domains shown)
VH: QVQLVQSGAEVKKPGASVKVSCKASGYTFTGYFIHWVRQAPGQGLEWMGWINPSYGAVNYARKFQGRVTMTRDTSISTAYMELQRLRSDDTAIYHCTIALAGYRWGFDYWGQGALVTVSS
VL: DIQMTQSPSSLSAFVGDRVTITCQARLDIRYSLNWYQQKPGKAPNLLIYDASNLETGVPSRFSGSGSGTNFTFTISTLQPEDIATYYCQQYETFGPGTKVHIK
B2: g5-D78-18_CLK19 (antibody, V domains shown)
VH: B1 VH with F33Y, S54T, R85S
VL: B1 VL with H101D
B3: g5-D78-22_CLK19 (antibody, V domains shown)
VH: B1 VH with F33Y, Q43H, M48L, S54N, M70L, Y80F, R85S, A99S
VL: B1 VL with A51V, T56I, H101D
B4: g5-D78-14_CLK19 (antibody, V domains shown)
VH: B1 VH with F33Y, S77T, H95Y
VL: B1 VL with S76N, H101D
B5: g5-D78-12_CLK19 (antibody, V domains shown)
VH: B1 VH with F33Y
VL: B1 VL with S76N, H101D
B6: g5-D78-16_CLK19 (antibody, V domains shown)
VH: B1 VH with F33Y
VL: B1 VL with I102F
B7: g28v2-D58-5_CLK19 (antibody, V domains shown)
VH: QVQLVQSGAEVKKPGASVKVSCKASGYTFTGYFIHWVRQAPGQGLEWMGWINPNRGGTNYAQKFQGRVTMTRDTSTSTAYMDLSRLRSDDTAMYYCTVVLAAYRWPFAYWGQGTLVTVSS
VL: DIRVTQSPSSLSASVGDRVTITCQANQDIRNYLNWYQQKPGKAPKLLIYDVSKLETGVPSRFSGSGSGTDFTFTISSLQSEDIATYYCQQYETFGPGTKVDIK
B8: g28v2-D58-10_CLK19 (antibody, V domains shown)
VH: QVQLVQSGAEVKKPGASVKVSCKASGYTFTDYHMHWVRQAPGQGLEWMGWINPRGGGTNYAQKFQGRVTMTRDTSISTAYMDLSRLRSDDTAVYYCTPVLATFRWRFDYWGQGTLVTVSS
VL: not shown
B9: g5-D78-13_CLK19 (antibody, V domains shown)
VH: QVQLVQSGAEVKKPGASVKVSCKASGYIFTDYNMHWVRQAPGQGLEWMGWINPSFGGRNIVQKFQGRVTMTRDTSISTAYMELSGLRSDDTAVYFCTPVLAPFRWRFAYWGQGTLVTVSS
VL: DIQMTQSPSSLSASVGDRVTITCQASQDINYLNWYQQKPGKAPKLLIYDASNLETGVPSRFSGSGSGTDFTFTISSLQPEDIATYYCQQYAAFGPGTKVNIK
B10: g5-D78-20_CLK19 (antibody, V domains shown)
VH: B9 VH with G49A, S54R, F55S, Y80F
VL: B9 VL with D81N, N100D
B11: g5-D78-15_CLK19 (antibody, V domains shown)
VH: B9 VH with R106P, A108V
VL: B9 VL with T71S, N100D
B12: g5-D78-3_CLK19 (antibody, V domains shown)
VH: B9 VH with R106P
VL: B9 VL with N100D, I101N
B13: g28v2-D46-9_CLK19 (antibody, V domains shown)
VH: QVQLVQSGAEVKKPGASVRVSCKASGYTFTGYYMHWVRQAPGQGLEWMGWINPNNGGVNYAHKFQGRVTMTRDTSISTAYMELSRLRSDDTAVYYCTTALAGHGWRFDYWGQGTLVTVSS
VL: DIQMTQSPSSLSAYVGDRVTITCQASQDISNYLNWYQQIPGKAPKLLIYDASNLEAGVPSRFSGSRSGADFTFTISSLQPEDIATYYCQQYATFGPGTKVDIK
B14: g5-D78-21_CLK19 (antibody, V domains shown)
VH: QVQLVQSGAEVKKPGASVKVSCKTSGYTFTGYFLHWVRQAPGQGLEWMGWINPNSGGINYAQKFQGRVTMTRDTSINTAYMELSRLRSDDTAVYYCTPVLTNFRWPFAFWGQGTLVTVSS
VL: B7 VL with R3Q, V4M, N26S, R30K, K42T, V51T, K53N, S80P
B15: g5-D78-1_CLK19 (antibody, V domains shown)
VH: B14 VH with T24A, S55R, I58V, T91S, P106R, A108D
VL: B7 VL with R3Q, V4M, N26S, R30K, K42T, V51T, K53N, S80P
B16: g5-D78-2_CLK19 (antibody, V domains shown)
VH: B14 VH
VL: B7 VL with R3Q, V4M, N26S, R30K, K42T, V51T, K53N, S65R, S80P
B17: g28v2-D58-1_CLK09 (antibody, V domains shown)
VH: QIQLVQSGAEVKKPGASVKVSCKASGYTFTDYFIHWVRQAPGQDLVWMGWINPIYGGTNYARSFQGRVTMTRDTSISTAFLELNRLRSDDTAVYYCATDLADNRWRFDYWGQGTLVTVSS
VL: DIQMTQSPSSLSASVGDRVTITCQASQDITSFLNWYQQKPGKAPKLLIYDASNLETGVPSRFSGSGSGTDFTFTISSLQPEDIATYYCQQYEFFGGGTKVEIK
B18: g28v2-D58-11_CLK09 (antibody, V domains shown)
VH: B8 VH with M34I
VL: B17 VL with T30R, S31N, F32Y, L54F
B19: g28v2-D58-6_CLK19 (antibody, V domains shown)
VH: QVQLVQSGAEVKKPGASVKVSCKASGYTFTGYYIHWFRQAPGQGLEWMGWMNPSYGGTNYAQKFQGRVTMTRDTSINTAYMELSRLRSDDTAVYYCTPVLAAYRWRFDYWGQGTLVTVSS
VL: B7 VL with R3Q, V4M, D28A, K53N
B20: g28v2-D58-3_CLK09 (antibody, V domains shown)
VH: QVQLVQSGADVRKPGASVKVSCKASGYTFTDYYVHWVRQAPGQGLEWMGWINPNRGGTNYPQKFQGRVTMTRDTSISTAYMELSRLRSDDTAVYYCALWFGEKKTFDIWGQGTMVTVSS
VL: B17 VL with D28G, I29V, T30S, S31N, F32Y, A51V
B21: g28v2-D58-7_CLK09 (antibody, V domains shown)
VH: B19 VH with F37V, S54T, Y55G, A102D
VL: B17 VL with S14F, D28G, I29V, T30S, S31K, F32Y
B22: g5-D78-19_CLK09 (antibody, V domains shown)
VH: QVQLVQSGAEVKKPGVSVKVSCKASGYTFNGYYMHWVRQAPGQGLEWMGWINPNNGGMNVARRFQDRVTLTRDTSFTTAYMELSRLRSDDSAVYYCARVGGLWFGEKWTFDIWGQGTMVTVSS
VL: B17 VL with A25T, T30S, S31T, K39R, D50G, E55A
B23: g28v2-D58-9_CLK09 (antibody, V domains shown)
VH: QVQLVQSGAEVKKPGASVKVSCKASGNTFTGNYIHWIRQAPGQGLEWMGWLNPNSGGTNYAQQLQGRVTMTRDTSISTAYMELRRLRSDDTAVYYCARVEGLWFGKEWAFDIWGQGTMVTVSS
VL: B17 VL with D28G, I29V, T30S, S31N, F32Y, P44L, A51V
B24: g28v2-D58-4_CLK09 (antibody, V domains shown)
VH: B20 VH with D10E, R12K, T30I, D31G, V34I
VL: B17 VL with D28G, I29V, T30S, S31N, F32Y, Y36F, P44L, A51V
B25: g28v2-D58-8_CLK09 (antibody, V domains shown)
VH: QVQLVQSGAEVKKPGASVKVSCKASGYTFTDYYLHWVRQAPGQGLEWMGWINPSTGGRNHARQFQGRVAMTRDTSISTAYMELSRLRSDDTAVYFCTPVLATFRWRFVYWGQGTLVTVSS
VL: B17 VL with D28G, I29V, T30S, S31N, F32Y, A51V
B26: g28v2-D58-2_CLK09 (antibody, V domains shown)
VH: B17 VH with I34L, V46E, I54T, Y55F, S63N, F80Y, D102S
VL: B17 VL with I2L, T30S, S31N, F32Y, D50G, T85I
B27: g5-D78-23_CLK09 (antibody, V domains shown)
VH: QVQLVQSGAEVKKPGASVKVSCKASGYTFTDYYMHWVRQAPGQGLEWVGWINPNSGGMNFAQRFQDRVTMTRDTSISTAYMELSRLQSDDSAVYFCARVGGLWIGEKWTFDIWGQGTMVTVSS
VL: B17 VL with T30S, S31T, F32Y, K39R, D50G, E55A, Q90L

What follows are binders tested against eOD-GT8 (monomeric ligand) (Human immunodeficiency virus 1, …).
B1 gave a Kd of 38 nM.
B2 showed a Kd of 12 nM.
B3 was tested, and the Kd was 100 nM.
Work on B4 yielded a Kd of 11 nM.
Work on B5 yielded a Kd of 12 nM.
B6 showed a Kd of 12 nM.
B7 was tested, and the Kd was 39 nM.
Work on B8 yielded a Kd of 3.69 nM.
B9 gave a Kd of 4.9 nM.
B10 gave a Kd of 3.4 nM.
B11 was tested, and the Kd was 0.92 nM.
B12 gave a Kd of 0.87 nM.
Binder B13 has a Kd of 0.0475 nM.
B14 was tested, and the Kd was 0.29 nM.
For B15, the Kd was 8 nM.
Work on B16 yielded a Kd of 0.42 nM.
Binder B17 has a Kd of 20.7 nM.
In the case of B18, the Kd is reported as 3.65 nM.
With B19 the Kd was 1.06 nM.
With B20 the Kd was 1.38 nM.
For B21, the Kd was 0.512 nM.
B22 showed a Kd of 0.2 nM.
In the case of B23, the Kd is reported as 0.0455 nM.
Binder B24 has a Kd of 3.48 nM.
For B25, the Kd was 0.444 nM.
In the case of B26, the Kd is reported as 1.55 nM.
B27 was tested, and the Kd was 0.078 nM.
